Reference: paper PMC11018872, “Dynamic inter-domain transformations mediate the allosteric regulation of human 5, 10-methylenetetrahydrofolate reductase” (Nature Communications, 2024)

Molecular target: the molecule itself
Test: negative stain EM; TEV-cleaved purified MTHFRFL, 50 nM in 20 mM HEPES pH 7.5, 200 mM NaCl with 5 mM SAM or 2.6 mM SAH; 2D classes

B1: full-length human 5,10-methylenetetrahydrofolate reductase (MTHFRFL aa 1-656) (enzyme)
chain: not shown
modifications: multiply phosphorylated during its recombinant expression (N-terminal Ser/Thr-rich region; sites not given)
notes: human 5,10-methylenetetrahydrofolate reductase (MTHFR), full-length, aa 1-656, wild type; Homodimer; also called MTHFRFL^SAM; MTHFRFL^(SAH (symm)); source: baculovirus/insect cell system, SF9 cells, purified (Ni-NTA, Superdex 200 size exclusion); flag/His10 tag removed with TEV protease; not shown: FLAG, C-terminal, cleaved; His10, C-terminal, cleaved
binding result: binds
